Test results taken from paper doi:10.1101/2021.12.03.471045 (2021).

How the values were obtained:
[1] = molecular target: T1, early pandemic (Wuhan) SARS-CoV-2 RBD (SARS-CoV-2, UniProt P0DTC2); assay: SPR
[2] = molecular target: T1, early pandemic (Wuhan) SARS-CoV-2 RBD; assay: SPR; remark: listed apart in the source

| Binder | koff [1] [s⁻¹] | Kd [2] [nM] |
| --- | --- | --- |
| EY6A mAb (IgG) (antibody, V domains shown) VH: EVQLVESGGGVVQPGRSLRLSCAASAFTFSSYDMHWVRQAPGKGLEWVAVISYDGSNKYYADSVKGRFTISRDNSKNTLYLQMNSLRAEDTAVYYCAKDGGKLWVYYFDYWGQGTLVTVSS VL: not shown | 0.0048 |  |
| Beta-55 mAb (IgG) (antibody, V domains shown) VH: QVQLQESGPGLVKPSETLSLTCTVSGDSISSSRYYWGWIRQPPGKGLEWIGTFYYSGITYYNPSLKSRVTIFVDTSKNQFSLKLSSVTAADTAVYYCARPRPPDYYDNSGALLFDIWGQGTMVTVSS VL: AIRMTQSPSTLSASVGDRVTIACRASQSISAWLAWYQQKPGKAPKLLIYKASSLESGVPSRFSGSGSGTEFTLTINSLQPDDFATYYCQQYISSSPWTFGQGTKVEIK | 0.00018 | 0.177 |
